This note sets out measurements from PMC11192940.

The test addresses GST-Rheb protein (UniProt Q15382). The experiment in a line: BLI. Background: BLI is a label-free optical method that tracks binding on a fibre tip over time.

Chain of GST-Rheb protein (Q15382 1-169): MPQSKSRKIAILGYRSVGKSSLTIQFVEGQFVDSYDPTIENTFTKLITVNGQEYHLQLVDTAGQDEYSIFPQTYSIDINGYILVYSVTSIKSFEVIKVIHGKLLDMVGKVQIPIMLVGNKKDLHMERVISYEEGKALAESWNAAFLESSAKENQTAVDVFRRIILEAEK

One may read the Kd as the constant that tells how readily two partners part at equilibrium. The low end stands for tighter binding, the high end for weaker binding. Substance “His-IL-37d, recombinant human IL-37d protein with a TAT peptide (pET-22b-TAT-his-IL-37d; mature IL-37d 21–197aa) (from UniProt Q9NZH6-4 21-197)” gave a Kd of 0.0542 µM.
